Assay results reported in the Human Domainome abundance scans (Beltran et al. 2025).
± gives the uncertainty stated by the source.

B1: Serine/threonine-protein kinase A-Raf, residues 21 to 89; numbered along this chain, P10398 (parent)
chain: VKVYLPNKQRTVVTVRDGMSVYDSLDKALKVRGLNQDCCVVYRLIKGRKTVTAWDTAIAPLDGEELIVE

Variants of: B1
Test: abundance fitness (aPCA) (normalised: wild type 0, dead -1); higher = more abundant; growth selection in yeast, the domain comes from the species named
Conditions: Homo sapiens

| Variant | abundance fitness |
| --- | --- |
| VKVYLPNKQRTVVTVRDGMSVYDSLDKALKVRGRNQDCCVVYRLIKGRKTVTAWDTAIAPLDGEELIVE | -1 ± 0.12 |
| VKVYLPNKQRTVVTVRDGMSVYDSLDKALKVRGWNQDCCVVYRLIKGRKTVTAWDTAIAPLDGEELIVE | -0.27 ± 0.055 |
| VKVYLPNKQRTVVTVRDGMSVYDSLDKALKVRGHNQDCCVVYRLIKGRKTVTAWDTAIAPLDGEELIVE | -0.789 ± 0.22 |
| VKVYLPNKQRTVVTVRDGMSVYDSLDKALKVRGYNQDCCVVYRLIKGRKTVTAWDTAIAPLDGEELIVE | -0.459 ± 0.22 |
| VKVYLPNKQRTVVTVRDGMSVYDSLDKALKVRGGNQDCCVVYRLIKGRKTVTAWDTAIAPLDGEELIVE | -1.1 ± 0.15 |
| VKVYLPNKQRTVVTVRDGMSVYDSLDKALKVRGANQDCCVVYRLIKGRKTVTAWDTAIAPLDGEELIVE | -1.02 ± 0.17 |
| VKVYLPNKQRTVVTVRDGMSVYDSLDKALKVRGTNQDCCVVYRLIKGRKTVTAWDTAIAPLDGEELIVE | -1.05 ± 0.23 |
| VKVYLPNKQRTVVTVRDGMSVYDSLDKALKVRGCNQDCCVVYRLIKGRKTVTAWDTAIAPLDGEELIVE | -0.644 ± 0.13 |
| VKVYLPNKQRTVVTVRDGMSVYDSLDKALKVRGMNQDCCVVYRLIKGRKTVTAWDTAIAPLDGEELIVE | -0.135 ± 0.059 |
| VKVYLPNKQRTVVTVRDGMSVYDSLDKALKVRGSNQDCCVVYRLIKGRKTVTAWDTAIAPLDGEELIVE | -0.835 ± 0.17 |
| VKVYLPNKQRTVVTVRDGMSVYDSLDKALKVRGFNQDCCVVYRLIKGRKTVTAWDTAIAPLDGEELIVE | -0.074 ± 0.14 |
| VKVYLPNKQRTVVTVRDGMSVYDSLDKALKVRGPNQDCCVVYRLIKGRKTVTAWDTAIAPLDGEELIVE | -0.833 ± 0.15 |
| VKVYLPNKQRTVVTVRDGMSVYDSLDKALKVRGVNQDCCVVYRLIKGRKTVTAWDTAIAPLDGEELIVE | -1 ± 0.15 |
| VKVYLPNKQRTVVTVRDGMSVYDSLDKALKVRGLKQDCCVVYRLIKGRKTVTAWDTAIAPLDGEELIVE | -0.063 ± 0.086 |
| VKVYLPNKQRTVVTVRDGMSVYDSLDKALKVRGLPQDCCVVYRLIKGRKTVTAWDTAIAPLDGEELIVE | -0.754 ± 0.15 |
| VKVYLPNKQRTVVTVRDGMSVYDSLDKALKVRGLGQDCCVVYRLIKGRKTVTAWDTAIAPLDGEELIVE | -0.154 ± 0.041 |
| VKVYLPNKQRTVVTVRDGMSVYDSLDKALKVRGLRQDCCVVYRLIKGRKTVTAWDTAIAPLDGEELIVE | -0.101 ± 0.04 |
| VKVYLPNKQRTVVTVRDGMSVYDSLDKALKVRGLTQDCCVVYRLIKGRKTVTAWDTAIAPLDGEELIVE | 0.025 ± 0.064 |
| VKVYLPNKQRTVVTVRDGMSVYDSLDKALKVRGLDQDCCVVYRLIKGRKTVTAWDTAIAPLDGEELIVE | -0.132 ± 0.12 |
| VKVYLPNKQRTVVTVRDGMSVYDSLDKALKVRGLQQDCCVVYRLIKGRKTVTAWDTAIAPLDGEELIVE | -0.221 ± 0.069 |
| VKVYLPNKQRTVVTVRDGMSVYDSLDKALKVRGLFQDCCVVYRLIKGRKTVTAWDTAIAPLDGEELIVE | -0.449 ± 0.18 |
| VKVYLPNKQRTVVTVRDGMSVYDSLDKALKVRGLVQDCCVVYRLIKGRKTVTAWDTAIAPLDGEELIVE | -0.161 ± 0.053 |
| VKVYLPNKQRTVVTVRDGMSVYDSLDKALKVRGLAQDCCVVYRLIKGRKTVTAWDTAIAPLDGEELIVE | -0.188 ± 0.066 |
| VKVYLPNKQRTVVTVRDGMSVYDSLDKALKVRGLIQDCCVVYRLIKGRKTVTAWDTAIAPLDGEELIVE | -0.682 ± 0.19 |
| VKVYLPNKQRTVVTVRDGMSVYDSLDKALKVRGLWQDCCVVYRLIKGRKTVTAWDTAIAPLDGEELIVE | -0.866 ± 0.15 |
| VKVYLPNKQRTVVTVRDGMSVYDSLDKALKVRGLHQDCCVVYRLIKGRKTVTAWDTAIAPLDGEELIVE | -0.415 ± 0.37 |

| Variant | abundance fitness |
| --- | --- |
| VKVYLPNKQRTVVTVRDGMSVYDSLDKALKVRGLMQDCCVVYRLIKGRKTVTAWDTAIAPLDGEELIVE | -0.321 ± 0.081 |
| VKVYLPNKQRTVVTVRDGMSVYDSLDKALKVRGLYQDCCVVYRLIKGRKTVTAWDTAIAPLDGEELIVE | -0.019 ± 0.21 |
| VKVYLPNKQRTVVTVRDGMSVYDSLDKALKVRGLLQDCCVVYRLIKGRKTVTAWDTAIAPLDGEELIVE | -0.32 ± 0.044 |
| VKVYLPNKQRTVVTVRDGMSVYDSLDKALKVRGLEQDCCVVYRLIKGRKTVTAWDTAIAPLDGEELIVE | 0.016 ± 0.068 |
| VKVYLPNKQRTVVTVRDGMSVYDSLDKALKVYGLNQDCCVVYRLIKGRKTVTAWDTAIAPLDGEELIVE | -0.012 ± 0.19 |
| VKVYLPNKQRTVVTVRDGMSVYDSLDKALKVMGLNQDCCVVYRLIKGRKTVTAWDTAIAPLDGEELIVE | 0.12 ± 0.06 |
| VKVYLPNKQRTVVTVRDGMSVYDSLDKALKVDGLNQDCCVVYRLIKGRKTVTAWDTAIAPLDGEELIVE | -0.487 ± 0.34 |
| VKVYLPNKQRTVVTVRDGMSVYDSLDKALKVTGLNQDCCVVYRLIKGRKTVTAWDTAIAPLDGEELIVE | -0.2 ± 0.08 |
| VKVYLPNKQRTVVTVRDGMSVYDSLDKALKVGGLNQDCCVVYRLIKGRKTVTAWDTAIAPLDGEELIVE | -0.298 ± 0.053 |
| VKVYLPNKQRTVVTVRDGMSVYDSLDKALKVKGLNQDCCVVYRLIKGRKTVTAWDTAIAPLDGEELIVE | -0.369 ± 0.068 |
| VKVYLPNKQRTVVTVRDGMSVYDSLDKALKVIGLNQDCCVVYRLIKGRKTVTAWDTAIAPLDGEELIVE | 0.188 ± 0.13 |
| VKVYLPNKQRTVVTVRDGMSVYDSLDKALKVCGLNQDCCVVYRLIKGRKTVTAWDTAIAPLDGEELIVE | -0.162 ± 0.21 |
| VKVYLPNKQRTVVTVRDGMSVYDSLDKALKVNGLNQDCCVVYRLIKGRKTVTAWDTAIAPLDGEELIVE | 0.141 ± 0.13 |
| VKVYLPNKQRTVVTVRDGMSVYDSLDKALKVLGLNQDCCVVYRLIKGRKTVTAWDTAIAPLDGEELIVE | 0.046 ± 0.07 |
| VKVYLPNKQRTVVTVRDGMSVYDSLDKALKVHGLNQDCCVVYRLIKGRKTVTAWDTAIAPLDGEELIVE | 0.1 ± 0.18 |
| VKVYLPNKQRTVVTVRDGMSVYDSLDKALKVWGLNQDCCVVYRLIKGRKTVTAWDTAIAPLDGEELIVE | -0.203 ± 0.057 |
| VKVYLPNKQRTVVTVRDGMSVYDSLDKALKVPGLNQDCCVVYRLIKGRKTVTAWDTAIAPLDGEELIVE | -0.59 ± 0.19 |
| VKVYLPNKQRTVVTVRDGMSVYDSLDKALKVAGLNQDCCVVYRLIKGRKTVTAWDTAIAPLDGEELIVE | 0.088 ± 0.063 |
| VKVYLPNKQRTVVTVRDGMSVYDSLDKALKVSGLNQDCCVVYRLIKGRKTVTAWDTAIAPLDGEELIVE | -0.141 ± 0.058 |
| VKVYLPNKQRTVVTVRDGMSVYDSLDKALKVVGLNQDCCVVYRLIKGRKTVTAWDTAIAPLDGEELIVE | 0.019 ± 0.055 |
| VKVYLPNKQRTVVTVRDGMSVYDSLDKALKVQGLNQDCCVVYRLIKGRKTVTAWDTAIAPLDGEELIVE | 0.065 ± 0.044 |
| VKVYLPNKQRTVVTVRDGMSVYDSLDKALKVEGLNQDCCVVYRLIKGRKTVTAWDTAIAPLDGEELIVE | -0.193 ± 0.045 |
| VKVYLPNKQRTVVTVRDGMSVYDSLDKALKVFGLNQDCCVVYRLIKGRKTVTAWDTAIAPLDGEELIVE | -0.009 ± 0.26 |
| VKVYLPNKQRTVVTVRDGMSVYDSLDKALKVRGLNEDCCVVYRLIKGRKTVTAWDTAIAPLDGEELIVE | -0.485 ± 0.3 |
| VKVYLPNKQRTVVTVRDGMSVYDSLDKALKVRGLNIDCCVVYRLIKGRKTVTAWDTAIAPLDGEELIVE | -0.043 ± 0.12 |
| VKVYLPNKQRTVVTVRDGMSVYDSLDKALKVRGLNDDCCVVYRLIKGRKTVTAWDTAIAPLDGEELIVE | -0.582 ± 0.31 |

| Variant | abundance fitness |
| --- | --- |
| VKVYLPNKQRTVVTVRDGMSVYDSLDKALKVRGLNNDCCVVYRLIKGRKTVTAWDTAIAPLDGEELIVE | -0.574 ± 0.22 |
| VKVYLPNKQRTVVTVRDGMSVYDSLDKALKVRGLNADCCVVYRLIKGRKTVTAWDTAIAPLDGEELIVE | -0.043 ± 0.071 |
| VKVYLPNKQRTVVTVRDGMSVYDSLDKALKVRGLNGDCCVVYRLIKGRKTVTAWDTAIAPLDGEELIVE | -0.398 ± 0.09 |
| VKVYLPNKQRTVVTVRDGMSVYDSLDKALKVRGLNCDCCVVYRLIKGRKTVTAWDTAIAPLDGEELIVE | -0.206 ± 0.12 |
| VKVYLPNKQRTVVTVRDGMSVYDSLDKALKVRGLNMDCCVVYRLIKGRKTVTAWDTAIAPLDGEELIVE | -0.18 ± 0.082 |
| VKVYLPNKQRTVVTVRDGMSVYDSLDKALKVRGLNFDCCVVYRLIKGRKTVTAWDTAIAPLDGEELIVE | -0.134 ± 0.12 |
| VKVYLPNKQRTVVTVRDGMSVYDSLDKALKVRGLNPDCCVVYRLIKGRKTVTAWDTAIAPLDGEELIVE | -0.03 ± 0.067 |
| VKVYLPNKQRTVVTVRDGMSVYDSLDKALKVRGLNHDCCVVYRLIKGRKTVTAWDTAIAPLDGEELIVE | -0.203 ± 0.077 |
| VKVYLPNKQRTVVTVRDGMSVYDSLDKALKVRGLNKDCCVVYRLIKGRKTVTAWDTAIAPLDGEELIVE | 0.046 ± 0.15 |
| VKVYLPNKQRTVVTVRDGMSVYDSLDKALKVRGLNLDCCVVYRLIKGRKTVTAWDTAIAPLDGEELIVE | -0.335 ± 0.072 |
| VKVYLPNKQRTVVTVRDGMSVYDSLDKALKVRELNQDCCVVYRLIKGRKTVTAWDTAIAPLDGEELIVE | -0.26 ± 0.22 |
| VKVYLPNKQRTVVTVRDGMSVYDSLDKALKVRCLNQDCCVVYRLIKGRKTVTAWDTAIAPLDGEELIVE | -0.694 ± 0.2 |
| VKVYLPNKQRTVVTVRDGMSVYDSLDKALKVRQLNQDCCVVYRLIKGRKTVTAWDTAIAPLDGEELIVE | -0.576 ± 0.12 |
| VKVYLPNKQRTVVTVRDGMSVYDSLDKALKVRMLNQDCCVVYRLIKGRKTVTAWDTAIAPLDGEELIVE | -0.037 ± 0.091 |
| VKVYLPNKQRTVVTVRDGMSVYDSLDKALKVRKLNQDCCVVYRLIKGRKTVTAWDTAIAPLDGEELIVE | -0.41 ± 0.16 |
| VKVYLPNKQRTVVTVRDGMSVYDSLDKALKVRYLNQDCCVVYRLIKGRKTVTAWDTAIAPLDGEELIVE | -0.894 ± 0.32 |
| VKVYLPNKQRTVVTVRDGMSVYDSLDKALKVRLLNQDCCVVYRLIKGRKTVTAWDTAIAPLDGEELIVE | -0.942 ± 0.2 |
| VKVYLPNKQRTVVTVRDGMSVYDSLDKALKVRPLNQDCCVVYRLIKGRKTVTAWDTAIAPLDGEELIVE | -0.953 ± 0.24 |
| VKVYLPNKQRTVVTVRDGMSVYDSLDKALKVRTLNQDCCVVYRLIKGRKTVTAWDTAIAPLDGEELIVE | -0.626 ± 0.2 |
| VKVYLPNKQRTVVTVRDGMSVYDSLDKALKVRRLNQDCCVVYRLIKGRKTVTAWDTAIAPLDGEELIVE | -0.712 ± 0.081 |
| VKVYLPNKQRTVVTVRDGMSVYDSLDKALKVRVLNQDCCVVYRLIKGRKTVTAWDTAIAPLDGEELIVE | -0.573 ± 0.069 |
| VKVYLPNKQRTVVTVRDGMSVYDSLDKALKVRSLNQDCCVVYRLIKGRKTVTAWDTAIAPLDGEELIVE | -0.525 ± 0.089 |
| VKVYLPNKQRTVVTVRDGMSVYDSLDKALKVRDLNQDCCVVYRLIKGRKTVTAWDTAIAPLDGEELIVE | -0.416 ± 0.2 |
| VKVYLPNKQRTVVTVRDGMSVYDSLDKALKVRNLNQDCCVVYRLIKGRKTVTAWDTAIAPLDGEELIVE | -0.473 ± 0.14 |
| VKVYLPNKQRTVVTVRDGMSVYDSLDKALKVRALNQDCCVVYRLIKGRKTVTAWDTAIAPLDGEELIVE | -0.546 ± 0.12 |
| VKVYLPNKQRTVVTVRDGMSVYDSLDKALKYRGLNQDCCVVYRLIKGRKTVTAWDTAIAPLDGEELIVE | -0.278 ± 0.15 |
